# Source: PMC10519996
# Legend:
# Q2XVP4 [1] = assay: cryo-EM structure; single-particle cryo-EM of porcine tubulin (5 mg/ml) incubated with 1.5 mM GMPCPP on ice for 20-30 min, peak fraction of gel filtration (Superdex 200 Increase 3.2/300), 1-2 μM on graphene grids, no cofactors or depolymerizing reagents; heterodimer map at 3.5 Å; tetramers by 2D …
# Q2XVP4 [2] = assay: cryo-EM structure; single-particle cryo-EM of porcine tubulin incubated with GDP on ice, peak fraction of gel filtration (Superdex 200 Increase 3.2/300), 1-2 μM on graphene grids, no cofactors or depolymerizing reagents; heterodimer maps at 3.6 Å and 3.9 Å; tetramers by 2D and 3D classification …
substance,measurement,setting,value
porcine αβ-tubulin heterodimer,percent of the particles per micrograph that are tubulin hexamers (three heterodimers),Q2XVP4 [1],"64%, 29%, and 7%"
same,percent of the particles per micrograph that are tubulin tetramers (two heterodimers),Q2XVP4 [1],"64%, 29%, and 7%"
same,percent of the particles per micrograph that are tubulin hexamers (three heterodimers),Q2XVP4 [2],"62%, 32%, and 6%"
same,percent of the particles per micrograph that are tubulin tetramers (two heterodimers),Q2XVP4 [2],"62%, 32%, and 6%"
